# The Immune Epitope Database (IEDB)
# Legend:
# HLA-B*48:01 = assay: IEDB peptide-MHC binding, purified MHC/direct/fluorescence; filed as Kd, often an IC50 or EC50 that approximates it; ≥ and ≤ were set here for values at or beyond the usual limits of such assays; settings: source organism: Mycobacterium avium 104
# HLA-A*02:01 = assay: as above
# HLA-A*11:01 = assay: as above
# HLA-A*31:01 = assay: as above
# HLA-B*58:01 [1] = assay: as above
# HLA-A*03:01 = assay: as above
# HLA-A*29:02 = assay: as above; settings: source organism: Mycobacterium avium 104
# HLA-B*08:01 = assay: as above
# HLA-A*01:01 = assay: as above
# HLA-A*69:01 = assay: as above
# HLA-B*27:05 = assay: as above
# HLA-B*18:01 = assay: as above; settings: source organism: Mycobacterium avium 104
# HLA-B*44:02 = assay: as above
# HLA-B*40:01 = assay: as above
# HLA-A*32:01 = assay: IEDB peptide-MHC binding, purified MHC/competitive/radioactivity; filed as Kd, often an IC50 or EC50 that approximates it; ≥ and ≤ were set here for values at or beyond the usual limits of such assays; settings: source organism: Vaccinia virus Copenhagen
# HLA-B*15:03 = assay: as above
# HLA-B*58:01 [2] = assay: as above; settings: source organism: Dengue virus 2 Jamaica/1409/1983
# HLA-B*57:01 = assay: as above; settings: source organism: Dengue virus 2 Jamaica/1409/1983
# HLA-B*07:02 = assay: IEDB peptide-MHC binding, purified MHC/direct/fluorescence; filed as Kd, often an IC50 or EC50 that approximates it; ≥ and ≤ were set here for values at or beyond the usual limits of such assays; settings: source organism: Yersinia pestis
# HLA-A*26:01 = assay: as above; settings: source organism: Yersinia pestis Nepal516
# HLA-B*15:01 = assay: as above; settings: source organism: Yersinia pestis
# HLA-B*39:01 = assay: as above; settings: source organism: Yersinia pestis CA88-4125
# [3] = source organism: Mycobacterium avium 104
# [4] = source organism: Yersinia pestis
# [5] = source organism: Yersinia pestis Nepal516
# [6] = source organism: Vaccinia virus WR
sequence,measurement,setting,value
IAHVRDVVM,Kd,HLA-B*48:01,≥ 20 µM
same,Kd,HLA-A*02:01; [3],≥ 20 µM
same,Kd,HLA-A*11:01; [3],≥ 20 µM
same,Kd,HLA-A*31:01; [3],≥ 20 µM
same,Kd,HLA-B*58:01 [1]; [3],≥ 20 µM
same,Kd,HLA-A*03:01; [3],≥ 20 µM
same,Kd,HLA-A*29:02,≥ 20 µM
same,Kd,HLA-B*08:01; [3],0.182 µM
same,Kd,HLA-A*01:01; [3],≥ 20 µM
same,Kd,HLA-A*69:01; [3],≥ 20 µM
same,Kd,HLA-B*27:05; [3],≥ 20 µM
same,Kd,HLA-B*18:01,≥ 20 µM
same,Kd,HLA-B*44:02; [3],≥ 20 µM
same,Kd,HLA-B*40:01; [3],≥ 20 µM
IIFMNLYSF,Kd,HLA-A*32:01,0.00125 µM
same,Kd,HLA-B*15:03; source organism: Vaccinia virus Copenhagen,0.0107 µM
ATGPISTLW,Kd,HLA-B*58:01 [2],0.00149 µM
same,Kd,HLA-B*57:01,0.00142 µM
QQSEARRML,Kd,HLA-A*02:01; [4],0.703 µM
same,Kd,HLA-A*11:01; [5],≥ 20 µM
same,Kd,HLA-B*07:02,0.397 µM
same,Kd,HLA-A*31:01; [5],≥ 20 µM
same,Kd,HLA-B*58:01 [1]; [5],≥ 20 µM
same,Kd,HLA-A*03:01; [5],≥ 20 µM
same,Kd,HLA-A*26:01,≥ 20 µM
same,Kd,HLA-B*08:01; [4],6.41 µM
same,Kd,HLA-A*01:01; [5],≥ 20 µM
same,Kd,HLA-B*15:01,0.109 µM
same,Kd,HLA-A*69:01; [5],≥ 20 µM
same,Kd,HLA-B*39:01,2.09 µM
same,Kd,HLA-B*27:05; [5],≥ 20 µM
same,Kd,HLA-B*44:02; [5],≥ 20 µM
same,Kd,HLA-B*40:01; [5],≥ 20 µM
MMVSTENNL,Kd,HLA-B*15:03; [6],0.011 µM
ILVPNINIL,Kd,HLA-B*15:03; [6],0.6 µM
